The experiment concerns the target low-density lipoprotein receptor LRP1 on human iPSC-derived cortical excitatory neurons (human (endogenous in iPSC-derived neurons)) (UniProt Q07954).
Chain of UniProt Q07954 (Q07954 20-4544): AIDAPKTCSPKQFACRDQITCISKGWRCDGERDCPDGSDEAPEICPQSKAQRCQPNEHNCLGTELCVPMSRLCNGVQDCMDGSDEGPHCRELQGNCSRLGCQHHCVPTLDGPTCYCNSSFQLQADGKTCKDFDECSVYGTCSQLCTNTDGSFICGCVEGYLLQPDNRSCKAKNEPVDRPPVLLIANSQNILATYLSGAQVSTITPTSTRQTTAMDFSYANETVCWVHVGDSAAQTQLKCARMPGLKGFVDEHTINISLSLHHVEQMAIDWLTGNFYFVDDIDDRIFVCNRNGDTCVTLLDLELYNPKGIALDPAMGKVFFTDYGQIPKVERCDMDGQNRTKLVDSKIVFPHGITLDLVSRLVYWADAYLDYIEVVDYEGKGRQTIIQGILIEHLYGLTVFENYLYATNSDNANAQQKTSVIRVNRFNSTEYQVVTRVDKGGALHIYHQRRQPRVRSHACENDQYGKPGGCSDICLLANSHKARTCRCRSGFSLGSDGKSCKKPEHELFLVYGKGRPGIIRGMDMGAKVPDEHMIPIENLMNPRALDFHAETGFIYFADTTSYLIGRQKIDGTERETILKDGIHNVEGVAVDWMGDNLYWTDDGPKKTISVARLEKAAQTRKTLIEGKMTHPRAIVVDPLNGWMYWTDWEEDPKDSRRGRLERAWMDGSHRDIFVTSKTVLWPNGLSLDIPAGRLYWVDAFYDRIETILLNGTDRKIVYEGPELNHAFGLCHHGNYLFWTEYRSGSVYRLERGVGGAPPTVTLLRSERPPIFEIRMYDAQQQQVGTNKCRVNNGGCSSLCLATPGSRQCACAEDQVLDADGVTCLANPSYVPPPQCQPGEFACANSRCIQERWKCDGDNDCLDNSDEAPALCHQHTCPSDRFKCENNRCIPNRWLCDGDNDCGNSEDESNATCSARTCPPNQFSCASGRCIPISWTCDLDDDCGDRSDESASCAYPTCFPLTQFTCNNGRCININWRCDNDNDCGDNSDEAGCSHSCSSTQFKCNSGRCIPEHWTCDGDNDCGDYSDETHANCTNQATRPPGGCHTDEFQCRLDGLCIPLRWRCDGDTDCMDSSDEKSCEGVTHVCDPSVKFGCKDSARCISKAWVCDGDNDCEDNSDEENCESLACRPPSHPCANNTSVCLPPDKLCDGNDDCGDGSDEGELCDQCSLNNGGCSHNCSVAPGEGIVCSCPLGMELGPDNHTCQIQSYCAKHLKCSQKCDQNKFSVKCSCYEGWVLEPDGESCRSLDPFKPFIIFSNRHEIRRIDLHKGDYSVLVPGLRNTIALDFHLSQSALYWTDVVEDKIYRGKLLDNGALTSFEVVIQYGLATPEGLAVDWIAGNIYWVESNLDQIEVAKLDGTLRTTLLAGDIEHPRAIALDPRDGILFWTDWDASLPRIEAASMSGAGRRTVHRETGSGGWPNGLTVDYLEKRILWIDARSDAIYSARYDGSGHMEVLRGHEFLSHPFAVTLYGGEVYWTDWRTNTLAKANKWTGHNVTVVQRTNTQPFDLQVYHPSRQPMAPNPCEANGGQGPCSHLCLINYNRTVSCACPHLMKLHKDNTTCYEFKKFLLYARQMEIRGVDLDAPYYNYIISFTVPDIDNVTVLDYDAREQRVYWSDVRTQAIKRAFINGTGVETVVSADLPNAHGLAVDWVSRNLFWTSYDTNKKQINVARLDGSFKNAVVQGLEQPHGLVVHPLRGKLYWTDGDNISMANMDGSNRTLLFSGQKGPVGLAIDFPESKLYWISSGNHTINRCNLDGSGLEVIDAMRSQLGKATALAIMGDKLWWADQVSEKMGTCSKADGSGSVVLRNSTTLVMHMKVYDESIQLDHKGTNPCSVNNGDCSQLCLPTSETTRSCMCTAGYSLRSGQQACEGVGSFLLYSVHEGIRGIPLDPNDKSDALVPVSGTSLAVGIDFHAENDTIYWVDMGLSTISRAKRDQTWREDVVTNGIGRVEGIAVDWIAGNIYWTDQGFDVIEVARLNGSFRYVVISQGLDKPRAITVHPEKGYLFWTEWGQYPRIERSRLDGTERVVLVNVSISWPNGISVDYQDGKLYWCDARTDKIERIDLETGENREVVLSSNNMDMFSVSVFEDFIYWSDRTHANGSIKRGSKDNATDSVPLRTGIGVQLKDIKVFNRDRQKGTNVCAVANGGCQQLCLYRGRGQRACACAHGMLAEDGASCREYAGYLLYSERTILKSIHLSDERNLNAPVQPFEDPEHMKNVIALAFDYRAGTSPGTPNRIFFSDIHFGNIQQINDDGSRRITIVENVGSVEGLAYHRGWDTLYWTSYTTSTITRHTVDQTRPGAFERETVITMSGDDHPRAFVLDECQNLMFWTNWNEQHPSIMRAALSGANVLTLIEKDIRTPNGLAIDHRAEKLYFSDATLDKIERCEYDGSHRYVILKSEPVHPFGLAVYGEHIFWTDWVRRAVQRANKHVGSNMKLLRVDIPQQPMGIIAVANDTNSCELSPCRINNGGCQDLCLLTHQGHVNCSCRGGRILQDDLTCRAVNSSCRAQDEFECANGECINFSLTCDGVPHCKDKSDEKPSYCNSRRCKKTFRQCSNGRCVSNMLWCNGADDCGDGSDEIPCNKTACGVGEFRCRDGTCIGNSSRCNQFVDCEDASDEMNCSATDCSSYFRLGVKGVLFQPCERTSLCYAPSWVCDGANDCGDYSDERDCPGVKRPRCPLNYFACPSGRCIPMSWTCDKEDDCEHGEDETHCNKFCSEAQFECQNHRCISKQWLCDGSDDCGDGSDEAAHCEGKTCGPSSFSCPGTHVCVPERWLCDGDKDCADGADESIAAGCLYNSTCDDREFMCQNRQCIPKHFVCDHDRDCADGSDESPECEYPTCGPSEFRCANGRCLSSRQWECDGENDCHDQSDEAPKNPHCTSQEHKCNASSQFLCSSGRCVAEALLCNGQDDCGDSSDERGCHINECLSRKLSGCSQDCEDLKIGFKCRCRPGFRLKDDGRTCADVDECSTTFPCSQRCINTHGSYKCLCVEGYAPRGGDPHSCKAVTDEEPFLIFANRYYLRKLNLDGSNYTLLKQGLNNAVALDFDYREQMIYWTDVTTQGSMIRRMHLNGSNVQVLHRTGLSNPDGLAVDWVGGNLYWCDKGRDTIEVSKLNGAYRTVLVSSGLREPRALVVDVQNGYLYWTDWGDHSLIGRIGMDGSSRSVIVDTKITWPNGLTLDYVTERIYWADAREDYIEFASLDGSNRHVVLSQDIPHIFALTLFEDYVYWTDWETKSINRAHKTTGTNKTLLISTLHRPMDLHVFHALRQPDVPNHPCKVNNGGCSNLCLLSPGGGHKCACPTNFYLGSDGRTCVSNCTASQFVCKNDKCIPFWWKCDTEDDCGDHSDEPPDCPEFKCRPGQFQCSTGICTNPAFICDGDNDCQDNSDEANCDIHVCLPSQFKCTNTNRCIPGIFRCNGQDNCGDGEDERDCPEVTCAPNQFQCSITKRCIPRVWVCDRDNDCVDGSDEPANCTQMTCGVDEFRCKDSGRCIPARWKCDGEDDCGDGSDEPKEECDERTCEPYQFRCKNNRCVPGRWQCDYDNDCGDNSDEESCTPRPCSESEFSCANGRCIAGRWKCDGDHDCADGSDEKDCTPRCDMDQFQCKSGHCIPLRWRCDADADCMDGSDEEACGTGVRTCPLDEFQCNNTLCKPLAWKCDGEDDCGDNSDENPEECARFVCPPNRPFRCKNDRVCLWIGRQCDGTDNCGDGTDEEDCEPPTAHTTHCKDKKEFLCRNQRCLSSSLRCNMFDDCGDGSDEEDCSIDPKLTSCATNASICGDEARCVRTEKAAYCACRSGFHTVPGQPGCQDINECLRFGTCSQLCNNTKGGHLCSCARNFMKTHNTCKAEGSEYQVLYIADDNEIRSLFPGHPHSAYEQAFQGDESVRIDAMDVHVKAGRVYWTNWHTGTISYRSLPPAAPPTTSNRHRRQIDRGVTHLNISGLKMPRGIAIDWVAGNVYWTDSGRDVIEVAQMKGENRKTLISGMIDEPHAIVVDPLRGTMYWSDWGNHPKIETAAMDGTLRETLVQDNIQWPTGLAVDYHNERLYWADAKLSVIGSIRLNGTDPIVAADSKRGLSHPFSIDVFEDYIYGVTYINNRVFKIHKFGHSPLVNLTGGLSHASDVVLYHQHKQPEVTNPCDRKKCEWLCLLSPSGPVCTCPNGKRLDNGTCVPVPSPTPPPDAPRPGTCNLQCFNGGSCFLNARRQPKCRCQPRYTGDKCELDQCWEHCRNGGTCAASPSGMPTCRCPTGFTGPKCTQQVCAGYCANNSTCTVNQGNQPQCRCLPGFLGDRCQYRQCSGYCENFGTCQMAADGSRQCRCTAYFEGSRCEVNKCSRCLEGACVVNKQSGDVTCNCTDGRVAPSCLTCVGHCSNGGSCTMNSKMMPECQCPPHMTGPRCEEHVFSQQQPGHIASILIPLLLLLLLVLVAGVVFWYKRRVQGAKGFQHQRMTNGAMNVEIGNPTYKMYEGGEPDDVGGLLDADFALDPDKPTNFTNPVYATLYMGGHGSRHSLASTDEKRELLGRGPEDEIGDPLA

For the substance “monomeric tau P301S (tau P301S_FLAG×3_10×his-tag), pHrodo-labelled (natural protein)”, the decrease in neuronal uptake of monomeric tau-pHrodo (tau-positive objects, live imaging over 4 h) with 100 nM soluble recombinant LRP1 domain IV (Human LRP1 Cluster IV Fc Chimera, R&D Systems) added stood at 68% and the neuronal uptake of monomeric tau-pHrodo (tau-positive objects, live imaging over 4 h) with 10 nM RAP chaperone (Human LRPAP Protein, R&D Systems) added to block LDL receptors is 63%.

The values above are taken from paper PMC12436637.
